Literature values as cited in article PMC4193333.

Target: BK channel alpha subunit (UniProt Q12791)
UniProt Q12791, sequence (Q12791 whole entry): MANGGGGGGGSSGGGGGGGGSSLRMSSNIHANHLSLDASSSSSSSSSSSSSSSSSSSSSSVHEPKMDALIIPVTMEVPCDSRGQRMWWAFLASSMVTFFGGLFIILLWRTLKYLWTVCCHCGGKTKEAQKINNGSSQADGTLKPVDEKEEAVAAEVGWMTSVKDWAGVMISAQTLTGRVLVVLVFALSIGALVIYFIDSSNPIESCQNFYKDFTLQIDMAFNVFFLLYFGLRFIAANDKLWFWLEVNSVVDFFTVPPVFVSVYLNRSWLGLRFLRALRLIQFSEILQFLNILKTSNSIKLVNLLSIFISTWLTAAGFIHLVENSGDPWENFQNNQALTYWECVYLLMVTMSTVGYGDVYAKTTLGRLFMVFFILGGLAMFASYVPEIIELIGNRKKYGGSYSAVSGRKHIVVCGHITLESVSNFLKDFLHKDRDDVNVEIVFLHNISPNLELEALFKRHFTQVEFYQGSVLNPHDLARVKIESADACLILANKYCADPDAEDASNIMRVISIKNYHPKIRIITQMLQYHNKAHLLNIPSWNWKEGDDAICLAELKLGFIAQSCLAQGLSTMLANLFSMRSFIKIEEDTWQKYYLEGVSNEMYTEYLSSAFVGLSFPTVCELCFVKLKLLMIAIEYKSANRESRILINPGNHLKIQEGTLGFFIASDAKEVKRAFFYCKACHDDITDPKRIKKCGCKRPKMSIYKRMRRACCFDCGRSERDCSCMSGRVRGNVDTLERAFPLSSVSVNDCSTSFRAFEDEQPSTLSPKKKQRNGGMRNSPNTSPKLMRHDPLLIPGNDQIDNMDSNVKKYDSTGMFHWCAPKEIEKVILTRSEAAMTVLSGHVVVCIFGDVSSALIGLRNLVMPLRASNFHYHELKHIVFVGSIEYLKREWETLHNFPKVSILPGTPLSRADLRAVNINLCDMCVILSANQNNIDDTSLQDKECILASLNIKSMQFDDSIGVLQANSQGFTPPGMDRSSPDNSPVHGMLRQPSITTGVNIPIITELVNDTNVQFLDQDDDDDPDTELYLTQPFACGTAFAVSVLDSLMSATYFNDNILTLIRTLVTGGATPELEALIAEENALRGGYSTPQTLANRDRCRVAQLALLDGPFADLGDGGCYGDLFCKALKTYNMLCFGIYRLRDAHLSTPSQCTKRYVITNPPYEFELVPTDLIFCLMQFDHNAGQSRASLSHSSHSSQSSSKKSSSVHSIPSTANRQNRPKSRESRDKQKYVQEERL

Iberiotoxin (IbTX) (from UniProt P24663)
Kd: 1.5 nM
